The source of these data is PMC5042879 (The Biochemical journal, 2016).

The labels stand for the following.
B1: GST-β-adducin tail (amino acids 335–726) (domain or fragment, UniProt P35612 335-726, looked up)
chain: EKHRPHEVGSVQWAGSTFGPMQKSRLGEHEFEALMRMLDNLGYRTGYTYRHPFVQEKTKHKSEVEIPATVTAFVFEEDGAPVPALRQHAQKQQKEKTRWLNTPNTYLRVNVADEVQRSMGSPRPKTTWMKADEVEKSSSGMPIRIENPNQFVPLYTDPQEVLEMRNKIREQNRQDVKSAGPQSQLLASVIAEKSRSPSTESQLMSKGDEDTKDDSEETVPNPFSQLTDQELEEYKKEVERKKLELDGEKETAPEEPGSPAKSAPASPVQSPAKEAETKSPLVSPSKSLEEGTKKTETSKAATTEPETTQPEGVVVNGREEEQTAEEILSKGLSQMTTSADTDVDTSKDKTESVTSGPMSPEGSPSKSPSKKKKKFRTPSFLKKSKKKEKVES

Experiment [1] concerns the target T1, (His)6-tagged erythrocyte cytoplasmic domain of band 3 (cdb3), wild type (UniProt P02730 1-403).
T1 sequence (looked up): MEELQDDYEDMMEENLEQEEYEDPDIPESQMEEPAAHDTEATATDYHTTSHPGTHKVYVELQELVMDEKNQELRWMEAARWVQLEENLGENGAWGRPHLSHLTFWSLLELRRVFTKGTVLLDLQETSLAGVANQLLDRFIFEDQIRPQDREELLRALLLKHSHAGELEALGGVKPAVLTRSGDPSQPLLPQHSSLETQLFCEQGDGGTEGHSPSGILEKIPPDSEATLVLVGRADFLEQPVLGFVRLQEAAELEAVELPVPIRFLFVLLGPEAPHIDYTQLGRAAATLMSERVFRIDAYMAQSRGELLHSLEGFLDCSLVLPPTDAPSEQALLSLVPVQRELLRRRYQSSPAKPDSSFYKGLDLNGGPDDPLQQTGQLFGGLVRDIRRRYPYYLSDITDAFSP
Nature of the experiment: pull-down.

In experiment [2] the target is B1. Kind of experiment: pull-down.

On to B1, for which the Kd (as a rule, the equilibrium constant for the complex coming apart) in experiment [1] came out at 260 nM.

B2: (His)6-tagged kidney cytoplasmic domain of band 3 (kidney cdb3) (domain or fragment, UniProt P02730-2 1-338, looked up)
chain: MDEKNQELRWMEAARWVQLEENLGENGAWGRPHLSHLTFWSLLELRRVFTKGTVLLDLQETSLAGVANQLLDRFIFEDQIRPQDREELLRALLLKHSHAGELEALGGVKPAVLTRSGDPSQPLLPQHSSLETQLFCEQGDGGTEGHSPSGILEKIPPDSEATLVLVGRADFLEQPVLGFVRLQEAAELEAVELPVPIRFLFVLLGPEAPHIDYTQLGRAAATLMSERVFRIDAYMAQSRGELLHSLEGFLDCSLVLPPTDAPSEQALLSLVPVQRELLRRRYQSSPAKPDSSFYKGLDLNGGPDDPLQQTGQLFGGLVRDIRRRYPYYLSDITDAFSP
The molecule B2 returned a Kd in experiment [2] of 280 nM.
